Holding throughout (format): physicochemical
Data set [1] can be described thus: Particle size of self-assembled nanoparticles (TEM). To be noted: for Particle Size: particles self-assembled from the conjugate, Table 1. On the procedure: Lyophilized peptide-polymer conjugates were dissolved in phosphate buffer (pH=8) at a concentration of 10 mg/ml (˜1.5 mM). Upon sonication for 30 s, solutions were diluted to 1 mg/ml (0.15 mM) or 0.1 mg/ml in phosphate buffer (pH=8). 5 μl of the diluted peptide solution were applied to a discharged holey carbon-coated copper grid (Ted Pella Cu 400 mesh 01824) for 4 minutes before absorbing off excess solution using filter paper (Whatman filter paper 1). The sample on the grid was negatively stained with a 5 μl 2% (w/v) phosphotungstic acid (adjusted to pH=3.3 with 1 M NaOH) for 2 minutes. Excess stain solution was wicked off. After complete drying, grids were examined by TEM at 120 kV (Philips/FEI Tecnai 12).
Lyophilized peptide powder was dissolved at 1 mg/ml in 25 mM phosphate buffer at pH 7.4. 5 μl of peptide solution was dropped on a discharged holey carbon coated grid (Ted Pella 01824). After removing excess peptide solution, 5 μl of phosphotungstic acid (2 wt %, pH=3.3) solution was then applied for 2 minutes. Samples were dried in air and examined by a FEI Tecnai 12 transmission electron microscope at 120 kV.

Data set [2] can be described thus: Differential scanning calorimetry (DSC) of micelles. To be noted: heating from 5° C. to 85° C.; solutions incubated at 20° C. for 16 hrs; FIG. 21A. On the procedure:
DSC was performed on a VP-MicroCal calorimeter (GE). ˜600 μl of sample and buffer were loaded into two parallel stainless steel cells that were sealed tightly under the pressure of ˜27 psi to prevent water evaporation during the heating cycle. The temperature was increased from 5° to 85° C. at a rate of 1° C./min, with a 15 min equilibration time at 5° C. DSC thermograms were obtained after concentration normalization and baseline correction using the Origin software provided by the MicroCal.

Data set [3] in a line: Circular dichroism (CD), peptide helicity. To be noted: CD spectra, same conditions, FIG. 31. On the procedure: Temperature dependent CD measurements were made on a Jasco J810 spectropolarimeter. CD spectra were collected from 260 to 190 nm at 0.2 nm intervals, a rate of a 100 nm/min, a response time of 4 s, and a bandwidth of 1 nm. Temperature melt curves were measured using ˜200 μM solutions. The ellipticity was monitored at 222 nm as the temperature increased from 5° to 95° C. in 5° C. increments at a rate of 1° C./min, with a 1 min equilibration time at each temperature before the measurement was taken. One hundred percent helicity was estimated using the formula [θ]222=40,000[…][1−(2.5/n)].

Where no end group is shown, it is not given here.

On to “Conjugate 8: dC16 lipid, heme-binding 4-helix peptide BB (SEQ ID NO: 2), PEG2K (GGGEIWKLHEEFLCKFEELLKLHEERLKKM; also: dC16 lipid, place not given here, PEG2K, place not given here)”, for which, in data set [1] (TEM for conjugate 15), the particle/micelle diameter is listed as roughly 12 nm. In data set [1], the “Particle Size” value is 10-15 nm.
On to “Conjugate 14: dC16 lipid, random coil control peptide SR (SEQ ID NO: 4), PEG2K (EGKAGEKAGAALKCGVQELEKGAEAGEGGW; also: dC16 lipid, place not given here, PEG2K, place not given here)”, for which, in data set [2], the “DSC melting temperature / endothermic peak centre” value worked out at 42 °C. Also, the helical content result in data set [3] is “less than 5%”. Further, the “Particle Size” value in data set [1] is 10-15 nm.

For the origin of these results see patent publication US9044514B2, “Lipid-peptide-polymer conjugates and nanoparticles thereof” (priority 2010, dated 2015).
